Laboratory results published in US20170342119A1.

Biological target: IL-15 βγ receptors on 32Dβ cells (UniProt P14784)
Experiment: cell-based or functional assay

UniProt P14784, sequence (P14784 27-551, chain 1 of 2): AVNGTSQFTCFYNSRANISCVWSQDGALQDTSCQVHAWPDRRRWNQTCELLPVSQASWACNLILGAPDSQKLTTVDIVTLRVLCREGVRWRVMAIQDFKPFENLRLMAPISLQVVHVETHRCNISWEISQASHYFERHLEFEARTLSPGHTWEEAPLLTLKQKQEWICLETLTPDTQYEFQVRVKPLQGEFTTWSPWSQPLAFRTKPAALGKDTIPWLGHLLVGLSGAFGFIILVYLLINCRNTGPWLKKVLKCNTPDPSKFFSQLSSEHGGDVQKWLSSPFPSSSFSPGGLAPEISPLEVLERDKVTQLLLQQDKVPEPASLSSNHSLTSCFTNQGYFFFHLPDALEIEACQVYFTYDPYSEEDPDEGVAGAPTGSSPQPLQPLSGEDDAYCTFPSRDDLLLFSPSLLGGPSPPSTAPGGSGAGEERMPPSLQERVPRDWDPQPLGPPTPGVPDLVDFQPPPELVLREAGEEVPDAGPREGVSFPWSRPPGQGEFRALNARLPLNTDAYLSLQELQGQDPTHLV
UniProt P14784, sequence (P34902 23-369, chain 2 of 2, further chain): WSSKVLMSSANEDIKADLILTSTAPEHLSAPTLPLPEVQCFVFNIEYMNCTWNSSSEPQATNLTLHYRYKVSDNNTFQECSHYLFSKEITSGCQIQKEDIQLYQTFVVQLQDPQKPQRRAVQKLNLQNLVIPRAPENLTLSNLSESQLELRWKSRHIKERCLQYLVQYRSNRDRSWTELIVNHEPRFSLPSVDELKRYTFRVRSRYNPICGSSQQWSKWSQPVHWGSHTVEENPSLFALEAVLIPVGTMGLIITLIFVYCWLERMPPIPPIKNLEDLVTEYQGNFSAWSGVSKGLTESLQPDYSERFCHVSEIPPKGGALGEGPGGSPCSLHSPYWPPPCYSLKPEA

## IL-15 (from UniProt P40933 49-162) (ligand)
  32Dβ cell proliferation (WST-1), EC50: 0.034 nM
